Laboratory results from the supplement of paper PMC9170038.

Test system: MS2 coat protein
Assay: apparent KD of MS2 coat protein; higher = weaker reporter binding
Details: Eterna round: R107
In short: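 Apparent KD stands for the median, per design, of fits to normalised cluster binding curves. The curves came from titrating on-chip-transcribed RNA switches on Illumina sequencing clusters with SNAP-549-labelled MS2 coat protein, twofold from 0.7 or 1.5 nM to 3 µM. Buffer was 100 mM Tris-HCl pH 7.5, 80 mM KCl, 4 mM MgCl2, without or with constant ligand.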

[1] = input ligand: theophylline 20 uM
[2] = input ligand: theophylline 2 mM
[3] = input ligand: tryptophan 2.4 mM

| Sequence | apparent KD of MS2 coat protein (input ligand: arginine 13.2 mM) [nM] | apparent KD of MS2 coat protein (input ligand: none) [nM] | apparent KD of MS2 coat protein [1] [nM] | apparent KD of MS2 coat protein [2] [nM] | apparent KD of MS2 coat protein [3] [nM] |
| --- | --- | --- | --- | --- | --- |
| UGUAUGUGAUCUGAUACCAGCUUUGAUAACCUGAGGAUCACCCUGGUAAAGGCGAAAGCCAGCCCUUGGCAGCAGAUCGCAUACU | 69.8 | 49.1 | 39.6 | 20.7 | 49.6 |
| AUGCAUGUCAGAAGGAGCGUCAGUAACAUGAGGAUCACCCAUGUAACAUUGAAUUCGAUGAGACAGGUAGGUCGCUGAAUAGUAA [JR_SSArginiB_Sub019] | 26.4 | 30.6 | 37.7 | 35.9 | 27.8 |
| CCCAGUUAUAUCAAAGGAAUUAUACUCGAAGGAGCGUCAUAGUAGGCAGGUAGGUCGCGAGACAUGAGGAUCACCCAUGUAGAGA [pxpmullin] | 37.6 | 51.6 | 58.4 | 34.5 | 30.4 |
| ACAUUUAACUGAAGGAGCGUGAUAAACAUGAGGAUCACCCAUGUACCAAAGAUUUUCAGAUCACAGGUAGGUCGCAGACUAAUGA [JR_ExcArginiB_Sub015] | 12.8 | 11.7 | 16.7 | 12.6 | 13.3 |
| UGUAUGUGAUCUGAUACCAGUCCAACUGGUAAAAGAUGAGGAUCACCCAUCUAAAAUUGGGACCCUUGGCAGCAGAUCGCAUACU | 91.7 | 264 | 122 | 13.7 | 264 |
| CGGGACAUGAGGAUCACCCAUGUACGAUCCCGAGGACCGGUACGGCCGCCACUCGCUAGCGUUGAGUCGCGACUUUCAUAACUAA [theeternabot_sameState_MS2_Trp_A_27] | 36.7 |  | 92.2 | 83.2 |  |
| CAUGUUAGGGCGGCCGCCACUGUGGCUACGGUACAUGAGGAUCACCCAUGUUUGUGGUUGAUCUACAGGACCGGGCCCUGACACG [Erarusge] | 127 | 187 | 578 | 679 | 209 |
| GCUAGGUCUACGGCCGCCACUAGACGUGGGUAAGACAUGAGGAUCACCCAUGUACUACGGGCGCUUAGGACCGGGUAGACCUAGC [SSTB NP+V+V2 #17 +-Same Structure] | 116 |  | 187 | 285 |  |
| UGGUACAUGGCGGCCGCCACUUCACGUAAAAUAAAAACUUGAGGAUCACCCAAGUAAUAAGUUGGGAGGACCGGGUCAUGUACCU | 18.4 |  | 23.2 | 19.2 | 14 |
| GGUGGCUGGAUCGAUACCAGCCACCACCGAUAGACCACAUGAGGAUCACCCAUGUUGGGUGGCCCUUGGCAGCGGUCCGGCUGCC [#1 Same State - Theophylline B Attempt #7 (HarryS)] | 126 |  | 679 |  | 759 |
| GGAACAUGAGGAUCACCCAUGUAAUCACGACGAGGACCGGUACGGCCGCCACUCGUAUUCACGCAAGGUAGAGGAAUACGUAGGC [theeternabot_exclusion_MS2_Trp_A_2] | 15.4 |  | 17.6 | 14.3 |  |
| GGAUAGGACACGGCCGCCACUAGCUAGGAUACUAGCAACAUUUCCUCAGAUGAGGAUCACCCAUCUAGGACCGGGUGUCCUAUCG | 25.7 | 26 | 36.5 | 33.6 | 84.4 |
| GGAGCUACGUCGGCCGCCACUAGCGGGUAUUGCGUGUACAUGAGGAUCACCCAUGUAAUAUGGCCUAGGACCGGGACGUAGCUCC [Bison] | 13.3 | 16.7 | 22.4 | 16.9 | 16.5 |
| GGAUAGGACACGGCCGCCACUGCGGCUAGAUACUAGCACAUUUCCUCACAUGAGGAUCACCCAUGUAGGACCGGGUGUCCUAUCG | 57.6 |  | 122 | 89 |  |
| AGCCCUGUACUAGAUACCAGCUACAUGAGGAUCACCCAUGUGCGUCAAGACUGACUGUGUGGCCCUUGGCAGCUGCUCGCAUGUA [Exclusion - Theophylline B (Freestyle 1)] | 50.6 |  | 191 |  | 168 |
| ACGAACGCACCUGAGGAACACCCAGGUGAUACCAGCCUGGAAACAGGCCCUUGGCAGCACCUAAAAUAAAGGUAACGUUCGAAUA [TheoAX8 #MicroSwitchBubble #AlternativeMS2] | 171 | 126 | 231 | 180 | 98.9 |
| GGGCAAGGUGCCGCCUUCGCCCACUGAGAAGGAGCGCAGGGUACUGCAGGUAGGUCGCUCAGACAUGAGGAUCACCCAUGUAGGA [Esislees] | 32.4 | 54.5 | 89.9 | 76 | 57.6 |
| GGCACUCUGUAAGAUACCAGACGUCGGUGCUUACAUGAGGAUCACCCAUGUUGCUUUUUAGUCCCUUGGCAGCUUCGGAUAACCA [Oniste] | 88.6 |  | 557 |  | 230 |

| Sequence | apparent KD of MS2 coat protein (input ligand: arginine 13.2 mM) [nM] | apparent KD of MS2 coat protein (input ligand: none) [nM] | apparent KD of MS2 coat protein [1] [nM] | apparent KD of MS2 coat protein [2] [nM] | apparent KD of MS2 coat protein [3] [nM] |
| --- | --- | --- | --- | --- | --- |
| CUCCUGGGAGCGGCCGCCACUGGAGGCCUUGCGCGACAUGAGGAUCACCCAUGUUGUCCCGGCCUCAGGACCGGGUUCGCGCGAG [Same State - Tryptophan B Attempt #1] | 6.5 | 8.09 | 10.2 | 9.71 | 8.67 |
| GGUUGGUGUGGAGACAUAUUGAUUACUGAAGGAGCGGGAAUAAACCCAGGUAGGUCGCAGAGAUCCACAUGAGGAUCACCCAUGU [!0.P] | 121 | 44.8 | 42.8 | 41.2 | 22.4 |
| AUACCGAGUGAGUCGUGUUUCUUUUCAGAUACCAGACUUUUCGUUGUCCCUUGGCAGCUGUUUUACAUGAGGAUCACCCAUGUUG [#28 Exclusion-TheophyllineA] | 16.3 |  | 18.1 |  | 15.2 |
| UUAAUCAGGUUAGAAAACUAAUUUGCAGAAGGAGCGUGAUAAAACACAGGUAGGUCGCUGAAGGGAACAUGAGGAUCACCCAUGU [AstrosSSArgA#10] | 22.9 | 26.3 | 32.7 | 28.5 | 26 |
| UAGCGAUCUCGUUAAAGGAUCCCAUUUGAUACCAGAGAACUUUGCCUCCCUUGGCAGCAAGUGACAUGAGGAUCACCCAUGUUGA [theeternabot_exclusion_MS2_Theo_A_3] | 16.4 |  | 20 |  | 16.4 |
| UGUAACAUGAGGAUCACCCAUGUGAGUGAUACCAGAUUAGUAGUAGUCCCUUGGCAGCACAUUGGGCGAGUGUAUAGUCUAUGCG [Same State - Theophylline A (Freestyle 11)] | 94.6 |  | 219 |  | 155 |
| GCGACACUCACGGCCGCCACUGAUUAGCCCAGUAUGGAGCCCACACAUGAGGAUCACCCAUGUCACAGGACCGGGUGGGUCUAUU [theeternabot_sameState_MS2_Trp_B_23] | 22.8 |  | 42.1 | 25.5 |  |
| AAGUGGCACGGAAGGAGCGAGUUUACCUAGAUAACAUGAGGAUCACCCAUGUAUAAUGGGACUCAGGUAGGUCGCCGCUGUCACU [#30 Same State - Arginine B] | 34.9 | 41.5 | 58.3 | 38.6 | 41.5 |
| GCCGCUGCCGCGGUGUGUGUGGGUGGGUGACGAGGACCGGUACGGCCGCCACUCGCGAUCGCACAUGAGGAUCACCCAUGUGUAA [Exclusion Tryp A GF20] | 13.3 |  | 20.7 | 19.6 |  |
| UGCCUAAAGUCGGCCGCCACUGAUGGUAUCCUCUCCUCGAGGUCACACAUGAGGAUCACCCAUGUCAGGACCGGGACUAGUGAGA [theeternabot_exclusion_MS2_Trp_B_36] | 7.11 |  | 9.65 | 7.48 |  |
| UUAUAUAUGCGAAGGAGCGGGAAAUAUAUAUAUAUAAUCCUAACAUGAGGAUCACCCAUGUCCCAGGUAGGUCGCGCAUAUAUAG [12.C] | 38 | 79 | 117 | 76.6 | 53.4 |
| ACAUGAGGAUCACCCAUGUAUGACUAUCCUCGAGGACCGGUACGGCCGCCACUCGAAGGAGUGGCUCGCGAGUGCGCACUUGCGA [5' end] | 10.9 | 11.9 | 19.2 | 11.8 | 12.1 |
| GCAUCAUGAACGGCCGCCACUAAGGAAUGAGCGGCUCUUGCGAUACAUGAGGAUCACCCAUGUCUUAGGACCGGGUUCAUUGUCA [theeternabot_sameState_MS2_Trp_B_49] | 69 |  | 343 | 322 |  |
| UGUAUGUGAUUUGAUACCAGACCAGCUGGUGUUAUAUGAGGAUCACCCAUAUAGGUUUGGGUCCCUUGGCAGCAAAUCGCAUACU [SS Theo B #24 Ms14] | 40.7 | 28.6 | 38.8 | 17.4 | 32.5 |
| CAAAAUUACGGAAGGAGCGCGGGUAGGCGGGUUGGAUCACAUGAGGAUCACCCAUGUAAAUCGCAGGUAGGUCGCCGUAAACGCG [Eslagele] | 45.6 | 28.8 | 43.9 | 76.9 | 36 |
| AACACACCAAAUGAUACCAGCUACAACAUGAUACAAAACCACAUGAGGAUCACCCAUGUAAGCCCUUGGCAGCAUACUACUGUAA [theeternabot_exclusion_MS2_Theo_B_40] | 16.9 |  | 24.2 |  | 18.7 |
| UAUAGUACCAGACAUGAGGAUCACCCAUGUCGAGGACCGGUACGGCCGCCACUCGGCAGUUUGCGUCCUCAGGUACUCCGGGUCA [Larisotexe] | 17.6 |  | 28.3 | 26.1 |  |
| GUAAUAUACAGAAGGAGCGUGAUAGUGAGCUUGUACAACAUGAGGAUCACCCAUGUAUAAUCACAGGUAGGUCGCUGUAUAGGGU [Arg B SS t2] | 17 | 16.1 | 21.9 | 15.4 | 17.8 |
